B1: E35-scFv LS30L (scFv, V domains shown)
VH: QMQLVQSGAEVKKPGASVKVSCKVSGYTLTELSIHWVRQAPGKGLEWMGGFDPEDGETIYAQKFQGRVTMTGDTSTDTAYLELSSLRSEDTALYYCATGRYTSLATTYGFDYWGQGTLVTVSS
VL: EIVMTQSPATLSLSPGERATLSCRASQSVLSYLAWYQQKPGQAPRLLIYGASSRATGIPDRFSGSGSGTDFTLTISRLEPEDFAVYYCQQYDNWPYTFGQGTKLEIK
B2: E35-scFv LS30V (scFv, V domains shown)
VH: QMQLVQSGAEVKKPGASVKVSCKVSGYTLTELSIHWVRQAPGKGLEWMGGFDPEDGETIYAQKFQGRVTMTGDTSTDTAYLELSSLRSEDTALYYCATGRYTSLATTYGFDYWGQGTLVTVSS
VL: EIVMTQSPATLSLSPGERATLSCRASQSVVSYLAWYQQKPGQAPRLLIYGASSRATGIPDRFSGSGSGTDFTLTISRLEPEDFAVYYCQQYDNWPYTFGQGTKLEIK
B3: E35-scFv LS30C (scFv, V domains shown)
VH: QMQLVQSGAEVKKPGASVKVSCKVSGYTLTELSIHWVRQAPGKGLEWMGGFDPEDGETIYAQKFQGRVTMTGDTSTDTAYLELSSLRSEDTALYYCATGRYTSLATTYGFDYWGQGTLVTVSS
VL: EIVMTQSPATLSLSPGERATLSCRASQSVCSYLAWYQQKPGQAPRLLIYGASSRATGIPDRFSGSGSGTDFTLTISRLEPEDFAVYYCQQYDNWPYTFGQGTKLEIK
B4: E35-scFv LS30K (scFv, V domains shown)
VH: QMQLVQSGAEVKKPGASVKVSCKVSGYTLTELSIHWVRQAPGKGLEWMGGFDPEDGETIYAQKFQGRVTMTGDTSTDTAYLELSSLRSEDTALYYCATGRYTSLATTYGFDYWGQGTLVTVSS
VL: EIVMTQSPATLSLSPGERATLSCRASQSVKSYLAWYQQKPGQAPRLLIYGASSRATGIPDRFSGSGSGTDFTLTISRLEPEDFAVYYCQQYDNWPYTFGQGTKLEIK
B5: E35-scFv LS30F (scFv, V domains shown)
VH: QMQLVQSGAEVKKPGASVKVSCKVSGYTLTELSIHWVRQAPGKGLEWMGGFDPEDGETIYAQKFQGRVTMTGDTSTDTAYLELSSLRSEDTALYYCATGRYTSLATTYGFDYWGQGTLVTVSS
VL: EIVMTQSPATLSLSPGERATLSCRASQSVFSYLAWYQQKPGQAPRLLIYGASSRATGIPDRFSGSGSGTDFTLTISRLEPEDFAVYYCQQYDNWPYTFGQGTKLEIK
B6: E35-scFv LS30Y (scFv, V domains shown)
VH: QMQLVQSGAEVKKPGASVKVSCKVSGYTLTELSIHWVRQAPGKGLEWMGGFDPEDGETIYAQKFQGRVTMTGDTSTDTAYLELSSLRSEDTALYYCATGRYTSLATTYGFDYWGQGTLVTVSS
VL: EIVMTQSPATLSLSPGERATLSCRASQSVYSYLAWYQQKPGQAPRLLIYGASSRATGIPDRFSGSGSGTDFTLTISRLEPEDFAVYYCQQYDNWPYTFGQGTKLEIK
B7: E35-scFv LY32Q (scFv, V domains shown)
VH: QMQLVQSGAEVKKPGASVKVSCKVSGYTLTELSIHWVRQAPGKGLEWMGGFDPEDGETIYAQKFQGRVTMTGDTSTDTAYLELSSLRSEDTALYYCATGRYTSLATTYGFDYWGQGTLVTVSS
VL: EIVMTQSPATLSLSPGERATLSCRASQSVSSQLAWYQQKPGQAPRLLIYGASSRATGIPDRFSGSGSGTDFTLTISRLEPEDFAVYYCQQYDNWPYTFGQGTKLEIK
B8: E35-scFv LS30N (scFv, V domains shown)
VH: QMQLVQSGAEVKKPGASVKVSCKVSGYTLTELSIHWVRQAPGKGLEWMGGFDPEDGETIYAQKFQGRVTMTGDTSTDTAYLELSSLRSEDTALYYCATGRYTSLATTYGFDYWGQGTLVTVSS
VL: EIVMTQSPATLSLSPGERATLSCRASQSVNSYLAWYQQKPGQAPRLLIYGASSRATGIPDRFSGSGSGTDFTLTISRLEPEDFAVYYCQQYDNWPYTFGQGTKLEIK
B9: E35-scFv LS30T (scFv, V domains shown)
VH: QMQLVQSGAEVKKPGASVKVSCKVSGYTLTELSIHWVRQAPGKGLEWMGGFDPEDGETIYAQKFQGRVTMTGDTSTDTAYLELSSLRSEDTALYYCATGRYTSLATTYGFDYWGQGTLVTVSS
VL: EIVMTQSPATLSLSPGERATLSCRASQSVTSYLAWYQQKPGQAPRLLIYGASSRATGIPDRFSGSGSGTDFTLTISRLEPEDFAVYYCQQYDNWPYTFGQGTKLEIK
B10: E35-scFv LS30R (scFv, V domains shown)
VH: QMQLVQSGAEVKKPGASVKVSCKVSGYTLTELSIHWVRQAPGKGLEWMGGFDPEDGETIYAQKFQGRVTMTGDTSTDTAYLELSSLRSEDTALYYCATGRYTSLATTYGFDYWGQGTLVTVSS
VL: EIVMTQSPATLSLSPGERATLSCRASQSVRSYLAWYQQKPGQAPRLLIYGASSRATGIPDRFSGSGSGTDFTLTISRLEPEDFAVYYCQQYDNWPYTFGQGTKLEIK
B11: E35-scFv LY32M (scFv, V domains shown)
VH: QMQLVQSGAEVKKPGASVKVSCKVSGYTLTELSIHWVRQAPGKGLEWMGGFDPEDGETIYAQKFQGRVTMTGDTSTDTAYLELSSLRSEDTALYYCATGRYTSLATTYGFDYWGQGTLVTVSS
VL: EIVMTQSPATLSLSPGERATLSCRASQSVSSMLAWYQQKPGQAPRLLIYGASSRATGIPDRFSGSGSGTDFTLTISRLEPEDFAVYYCQQYDNWPYTFGQGTKLEIK
B12: E35-scFv LS30W (scFv, V domains shown)
VH: QMQLVQSGAEVKKPGASVKVSCKVSGYTLTELSIHWVRQAPGKGLEWMGGFDPEDGETIYAQKFQGRVTMTGDTSTDTAYLELSSLRSEDTALYYCATGRYTSLATTYGFDYWGQGTLVTVSS
VL: EIVMTQSPATLSLSPGERATLSCRASQSVWSYLAWYQQKPGQAPRLLIYGASSRATGIPDRFSGSGSGTDFTLTISRLEPEDFAVYYCQQYDNWPYTFGQGTKLEIK
B13: E35-scFv LY32W (scFv, V domains shown)
VH: QMQLVQSGAEVKKPGASVKVSCKVSGYTLTELSIHWVRQAPGKGLEWMGGFDPEDGETIYAQKFQGRVTMTGDTSTDTAYLELSSLRSEDTALYYCATGRYTSLATTYGFDYWGQGTLVTVSS
VL: EIVMTQSPATLSLSPGERATLSCRASQSVSSWLAWYQQKPGQAPRLLIYGASSRATGIPDRFSGSGSGTDFTLTISRLEPEDFAVYYCQQYDNWPYTFGQGTKLEIK
B14: E35-scFv LS30M (scFv, V domains shown)
VH: QMQLVQSGAEVKKPGASVKVSCKVSGYTLTELSIHWVRQAPGKGLEWMGGFDPEDGETIYAQKFQGRVTMTGDTSTDTAYLELSSLRSEDTALYYCATGRYTSLATTYGFDYWGQGTLVTVSS
VL: EIVMTQSPATLSLSPGERATLSCRASQSVMSYLAWYQQKPGQAPRLLIYGASSRATGIPDRFSGSGSGTDFTLTISRLEPEDFAVYYCQQYDNWPYTFGQGTKLEIK
B15: E35-scFv LS30G (scFv, V domains shown)
VH: QMQLVQSGAEVKKPGASVKVSCKVSGYTLTELSIHWVRQAPGKGLEWMGGFDPEDGETIYAQKFQGRVTMTGDTSTDTAYLELSSLRSEDTALYYCATGRYTSLATTYGFDYWGQGTLVTVSS
VL: EIVMTQSPATLSLSPGERATLSCRASQSVGSYLAWYQQKPGQAPRLLIYGASSRATGIPDRFSGSGSGTDFTLTISRLEPEDFAVYYCQQYDNWPYTFGQGTKLEIK
B16: E35-scFv LY32L (scFv, V domains shown)
VH: QMQLVQSGAEVKKPGASVKVSCKVSGYTLTELSIHWVRQAPGKGLEWMGGFDPEDGETIYAQKFQGRVTMTGDTSTDTAYLELSSLRSEDTALYYCATGRYTSLATTYGFDYWGQGTLVTVSS
VL: EIVMTQSPATLSLSPGERATLSCRASQSVSSLLAWYQQKPGQAPRLLIYGASSRATGIPDRFSGSGSGTDFTLTISRLEPEDFAVYYCQQYDNWPYTFGQGTKLEIK
B17: E35-scFv LY32T (scFv, V domains shown)
VH: QMQLVQSGAEVKKPGASVKVSCKVSGYTLTELSIHWVRQAPGKGLEWMGGFDPEDGETIYAQKFQGRVTMTGDTSTDTAYLELSSLRSEDTALYYCATGRYTSLATTYGFDYWGQGTLVTVSS
VL: EIVMTQSPATLSLSPGERATLSCRASQSVSSTLAWYQQKPGQAPRLLIYGASSRATGIPDRFSGSGSGTDFTLTISRLEPEDFAVYYCQQYDNWPYTFGQGTKLEIK
B18: E35-scFv LS30A (scFv, V domains shown)
VH: QMQLVQSGAEVKKPGASVKVSCKVSGYTLTELSIHWVRQAPGKGLEWMGGFDPEDGETIYAQKFQGRVTMTGDTSTDTAYLELSSLRSEDTALYYCATGRYTSLATTYGFDYWGQGTLVTVSS
VL: EIVMTQSPATLSLSPGERATLSCRASQSVASYLAWYQQKPGQAPRLLIYGASSRATGIPDRFSGSGSGTDFTLTISRLEPEDFAVYYCQQYDNWPYTFGQGTKLEIK
B19: E35-scFv LS30E (scFv, V domains shown)
VH: QMQLVQSGAEVKKPGASVKVSCKVSGYTLTELSIHWVRQAPGKGLEWMGGFDPEDGETIYAQKFQGRVTMTGDTSTDTAYLELSSLRSEDTALYYCATGRYTSLATTYGFDYWGQGTLVTVSS
VL: EIVMTQSPATLSLSPGERATLSCRASQSVESYLAWYQQKPGQAPRLLIYGASSRATGIPDRFSGSGSGTDFTLTISRLEPEDFAVYYCQQYDNWPYTFGQGTKLEIK
B20: E35-scFv LY32F (scFv, V domains shown)
VH: QMQLVQSGAEVKKPGASVKVSCKVSGYTLTELSIHWVRQAPGKGLEWMGGFDPEDGETIYAQKFQGRVTMTGDTSTDTAYLELSSLRSEDTALYYCATGRYTSLATTYGFDYWGQGTLVTVSS
VL: EIVMTQSPATLSLSPGERATLSCRASQSVSSFLAWYQQKPGQAPRLLIYGASSRATGIPDRFSGSGSGTDFTLTISRLEPEDFAVYYCQQYDNWPYTFGQGTKLEIK

Target: T1, human GM-CSFRα, full length on cells (human, UniProt P15509 23-400)
T1 sequence: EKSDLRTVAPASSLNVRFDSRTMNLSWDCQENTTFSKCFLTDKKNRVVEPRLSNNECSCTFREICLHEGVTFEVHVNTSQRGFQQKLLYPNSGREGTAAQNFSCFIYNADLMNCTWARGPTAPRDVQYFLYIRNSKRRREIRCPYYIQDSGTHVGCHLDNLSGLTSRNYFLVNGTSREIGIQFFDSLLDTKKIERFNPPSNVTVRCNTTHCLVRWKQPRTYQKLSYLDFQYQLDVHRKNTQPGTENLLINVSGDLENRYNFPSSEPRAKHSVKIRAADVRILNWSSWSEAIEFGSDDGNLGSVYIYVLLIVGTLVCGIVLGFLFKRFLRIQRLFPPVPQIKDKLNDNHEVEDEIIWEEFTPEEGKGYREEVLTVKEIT
Experiment: cell-based or functional assay

Going from B1 to B2, the “IC50, TF-1 cell proliferation” value rises from 0.069 µg/mL to 0.124 µg/mL (1.8-fold).

First: B3
Second: B4
The “IC50, TF-1 cell proliferation” value of the first is 2.7-fold higher: 0.221 µg/mL for the first, 0.083 µg/mL for the second.

First: B5
Second: B6
The “IC50, TF-1 cell proliferation” value of the first is 2-fold higher: 0.16 µg/mL for the first, 0.082 µg/mL for the second.

Compared with B7, B8 is 6.6-fold lower in “IC50, TF-1 cell proliferation” value: 0.87 µg/mL for the first, 0.132 µg/mL for the second.

B9 and B10 are within 1.5-fold of each other in “IC50, TF-1 cell proliferation” value: 0.092 µg/mL for the first, 0.088 µg/mL for the second.

Going from B11 to B12, the “IC50, TF-1 cell proliferation” value falls from 0.42 µg/mL to 0.071 µg/mL (5.9-fold).

First: B13
Second: B14
The “IC50, TF-1 cell proliferation” value of the first is 16-fold higher: 1.17 µg/mL for the first, 0.073 µg/mL for the second.

B15 and B16 are within 1.5-fold of each other in “IC50, TF-1 cell proliferation” value: 0.092 µg/mL for the first, 0.07 µg/mL for the second.

Compared with B17, B18 is 6.5-fold lower in “IC50, TF-1 cell proliferation” value: 0.51 µg/mL for the first, 0.078 µg/mL for the second.

Compared with B19, B20 is 2.1-fold higher in “IC50, TF-1 cell proliferation” value: 0.1 µg/mL for the first, 0.21 µg/mL for the second.

— patent US20230002496A1 (STAIDSON BEIJING BIOPHARMACEUTICALS, published 2023)
